Assay results published in patent US20260365696A1, “INHIBITORS OF PTP1B / NCK1 INTERACTION AND METHODS OF MAKING AND USING SAME” (Radella Pharmaceuticals LLC, priority 2023, published 2026).

T1: NCK1 SH3-2 domain (human)
T1 chain: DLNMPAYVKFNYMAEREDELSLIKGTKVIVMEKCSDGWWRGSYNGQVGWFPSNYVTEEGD


Target: T1, NCK1 SH3-2 domain
Assay: ITC

Ac-PPRPPKRG-NH2 [MH145] and Ac-PPRPPKRW-NH2 [MH154] cannot be ordered by Kd: under 300 µM for the first, under 300 µM for the second.

Ac-PPRPPKRL-NH2 [MH147] and Ac-PPRPPKRY-NH2 [MH155] cannot be ordered by Kd: under 300 µM for the first, under 300 µM for the second.

Ac-PPRPPKRD-NH2 [MH141] and Ac-PPRPPKRH-NH2 [MH146] cannot be ordered by Kd: under 300 µM for the first, under 300 µM for the second.

Ac-PPRPPKRA-NH2 [MH138] and Ac-PPRPPKRM-NH2 [MH149] cannot be ordered by Kd: under 300 µM for the first, under 300 µM for the second.

Ac-PPRPPKRC-NH2 [MH142] and Ac-PPRPPKRF-NH2 [MH150] cannot be ordered by Kd: under 300 µM for the first, under 300 µM for the second.

Ac-PPRPPKRP-NH2 [MH151] and Ac-PPRPPKRK-NH2 [MH148] cannot be ordered by Kd: under 600 µM for the first, under 300 µM for the second.

Ac-PPRPPKRR-NH2 [MH139] and Ac-PPRPPKRN-NH2 [MH140] cannot be ordered by Kd: under 300 µM for the first, under 300 µM for the second.

Work on Ac-PPRPPKRS-NH2 [MH152] yielded a Kd of under 300 µM.

Target: T1, NCK1 SH3-2 domain
Assay: ITC
Remark: another data set of the same source

Ac-PPKPPKR-NH2 [MH055] and Ac-PPWPPKR-NH2 [MH056] cannot be ordered by Kd: under 300 µM for the first, under 600 µM for the second.

Ac-PPVPPKR-NH2 [MH124] and Ac-PPDPPKR-NH2 [MH084] cannot be ordered by Kd: under 300 µM for the first, under 300 µM for the second.

Ac-PPCPPKR-NH2 [MH061] and Ac-PPFPPKR-NH2 [MH066] cannot be ordered by Kd: under 300 µM for the first, under 300 µM for the second.

Ac-PPTPPKR-NH2 [MH114] and Ac-PPPPPKR-NH2 [MH106] cannot be ordered by Kd: under 300 µM for the first, under 300 µM for the second.

Ac-PPMPPKR-NH2 [MH110] and Ac-PPYPPKR-NH2 [MH120] cannot be ordered by Kd: under 300 µM for the first, under 300 µM for the second.

First: Ac-PPNPPKR-NH2 [MH060]
Second: Ac-PPGPPKR-NH2 [MH092]
The Kd of the first is lower: under 300 µM for the first, over 600 µM for the second. The first binds more tightly here.

Ac-PPHPPKR-NH2 [MH057] and Ac-PPIPPKR-NH2 [MH096] cannot be ordered by Kd: under 300 µM for the first, under 300 µM for the second.

Ac-PPEPPKR-NH2 [MH058] and Ac-PPQPPKR-NH2 [MH087] cannot be ordered by Kd: under 300 µM for the first, under 300 µM for the second.

Ac-PPLPPKR-NH2 [MH100] and Ac-PPSPPKR-NH2 [MH059] cannot be ordered by Kd: under 300 µM for the first, under 300 µM for the second.

Target: T1, NCK1 SH3-2 domain
Assay: ITC
Remark: another data set of the same source

Ac-PPPEHIPPPPRPPKR-NH2 [MD17] and Ac-PPAEHIPPPPRPPKR-NH2 [MSJ014] cannot be ordered by Kd: under 300 µM for the first, under 300 µM for the second.

Ac-PPPEHIPPPPRAPKR-NH2 [MH004] and Ac-PPPEHIPPPPRPPAR-NH2 [MH006] cannot be ordered by Kd: under 300 µM for the first, under 300 µM for the second.

First: Ac-PPPEHAPPPPRPPKR-NH2 [MSJ017]
Second: Ac-PPPEHIPPPPRPPKA-NH2 [MH007]
The Kd of the first is lower: under 300 µM for the first, over 1000 µM for the second.

Going from Ac-APPEHIPPPPRPPKR-NH2 [MSJ012] to Ac-PPPEHIPPPARPPKR-NH2 [MH002], the Kd rises from under 300 µM to over 1000 µM. The first binds more tightly here.

Ac-PPPEHIAPPPRPPKR-NH2 [MSJ018] and Ac-PPPEAIPPPPRPPKR-NH2 [MSJ016] cannot be ordered by Kd: under 300 µM for the first, under 300 µM for the second.

Ac-PAPEHIPPPPRPPKR-NH2 [MSJ013] and Ac-PPPEHIPPAPRPPKR-NH2 [MH001] cannot be ordered by Kd: under 300 µM for the first, under 300 µM for the second.

Ac-PPPEHIPPPPAPPKR-NH2 [MH003] and Ac-PPPEHIPAPPRPPKR-NH2 [MSJ019] cannot be ordered by Kd: under 300 µM for the first, under 300 µM for the second.

First: Ac-PPPEHIPPPPRPAKR-NH2 [MH005]
Second: Ac-PPPAHIPPPPRPPKR-NH2 [MSJ015]
The Kd of the first is higher: over 1000 µM for the first, under 300 µM for the second. The second binds more tightly here.

Target: T1, NCK1 SH3-2 domain
Assay: ITC
Remark: another data set of the same source

Ac-PPRPPLR-NH2 [MH102] and Ac-PPRPPPR-NH2 [MH107] cannot be ordered by Kd: under 300 µM for the first, under 300 µM for the second.

Ac-PPRPPYR-NH2 [MH122] and Ac-PPRPPRR-NH2 [MH048] cannot be ordered by Kd: under 300 µM for the first, under 300 µM for the second.

Ac-PPRPPNR-NH2 [MH053] and Ac-PPRPPIR-NH2 [MH098] cannot be ordered by Kd: under 300 µM for the first, under 300 µM for the second.
